Data as given in US4348387A, “Method and system for the controlled release of biologically active substances to a body fluid” (The Rockefeller University, priority 1979, dated 1982).
Values joined by “and” are separate entries in the source; they are usually repeats but may differ in a detail not shown here. Equal values may be shown once.

Legend:
Concanavalin A = Concanavalin A (Canavalia ensiformis, UniProt P02866); assay: binding to and glucose elution from columns of immobilized Concanavalin A; parameters: species or system Jack Bean
Procedure: At the point indicated by the arrow, 0.2 M glucose in the column buffer was begun. Fractions (2.0 ml) were collected at a flow rate of 10-15 ml/h.
Displacement of hormone was accomplished using 1.0 ml pulses of column buffer containing varying amounts of glucose. Glucose content is indicated over the appropriate arrows. Fractions (1.7 ml) were collected at a flow rate of 10-15 ml/h.

blood glucose = assay: blood-glucose depression assay modified from the U.S. Pharmacopeia; details: individual animals A-F; overnight fast; 0.1mg protein/100gm body weight subcutaneous; 60 minutes after injection; each animal its own control
Procedure: The conjugate prepared in I was tested using the blood-glucose depression assay modified from the U.S. Pharmoacopeia (Vol. XVIII, 883-884 (1967)).
*After an overnight fast, each animal received 0.1mg protein/100gm body
weight by subcutaneous injection. Each of the animals served as its own
control, receiving the maltoseinsulin derivative on day 1, and control
insulin on day 2. Blood glucose depression was determined 60 minutes afte
injection using a Beckman Glucose Analyzer 2.

## insulin [Control insulin]
Concanavalin A; 20 mg applied to column, buffer wash, 25 mM sodium phosphate pH 7.4
  binding to immobilized Concanavalin A: did not bind to Concanavalin A
Concanavalin A; 0.2 M glucose in column buffer, 1,000:1 molar excess of glucose
  elution from Concanavalin A by glucose: none was eluted by the addition of glucose
Blood glucose
  BLOOD GLUCOSE DEPRESSION: 75 mg % and 70 mg % and 79 mg % and 64 mg % and 73 mg %
